This data set in a line: total protein half-life in vivo (active degradation + dilution); higher = more stable protein.
[1] abbreviates: wild type E. coli NCM3722, growth: P-lim chemostat, doubling time 6 h.
Where [2] appears, read: wild type E. coli NCM3722, growth: P-lim chemostat, doubling time 12 h.
Where [3] appears, read: E. coli NCM3722 delta-clpP delta-lon delta-hslV, growth: N-lim chemostat, doubling time 6 h.
Where [4] appears, read: E. coli NCM3722 delta-clpP, growth: N-lim chemostat, doubling time 6 h.
The mark [5] stands for this setting: E. coli NCM3722 delta-hslV, growth: N-lim chemostat, doubling time 6 h.
Where [6] appears, read: E. coli NCM3722 delta-lon, growth: N-lim chemostat, doubling time 6 h.
The mark [7] stands for this setting: E. coli NCM3722 delta-smpB, growth: N-lim chemostat, doubling time 6 h.
Where [8] appears, read: wild type E. coli NCM3722, growth: C-lim chemostat, doubling time 3 h.
The mark [9] stands for this setting: wild type E. coli NCM3722, growth: C-lim chemostat, doubling time 6 h.
Where [10] appears, read: wild type E. coli NCM3722, growth: C-lim chemostat, doubling time 12 h.
The mark [11] stands for this setting: wild type E. coli NCM3722, growth: N-lim chemostat, doubling time 6 h.
The mark [12] stands for this setting: wild type E. coli NCM3722, growth: N-lim chemostat, doubling time 12 h.

This is an account of results in the supplement of paper PMC11246515.

± gives the standard deviation of the averaged measurements.

As to “MTHQLRSRDIIALGFMTFALFVGAGNIIFPPMVGLQAGEHVWTAAFGFLITAVGLPVLTVVALAKVGGGVDSLSTPIGKVAGVLLATVCYLAVGPLFATPRTATVSFEVGIAPLTGDSALPLFIYSLVYFAIVILVSLYPGKLLDTVGNFLAPLKIIALVILSVAAIVWPAGSISTATEAYQNAAFSNGFVNGYLTMDTLGAMVFGIVIVNAARSRGVTEARLLTRYTVWAGLMAGVGLTLLYLALFRLGSDSASLVDQSANGAAILHAYVQHTFGGGGSFLLAALIFIACLVTAVGLTCACAEFFAQYVPLSYRTLVFILGGFSMVVSNLGLSQLIQISVPVLTAIYPPCIALVVLSFTRSWWHNSSRVIAPPMFISLLFGILDGIKASAFSDILPSWAQRLPLAEQGLAWLMPTVVMVVLAIIWDRAAGRQVTSSAH [P0AD99]”, the “total protein half-life in vivo” value amounted to 0.949 h under setting [1] and 1.98 ± 0.53 h under setting [2].

Turning to “MRFSRFIIGLTSCIAFSVQAANVDEYITQLPAGANLALMVQKVGASAPAIDYHSQQMALPASTQKVITALAALIQLGPDFRFTTTLETKGNVENGVLKGDLVARFGADPTLKRQDIRNMVATLKKSGVNQIDGNVLIDTSIFASHDKAPGWPWNDMTQCFSAPPAAAIVDRNCFSVSLYSAPKPGDMAFIRVASYYPVTMFSQVRTLPRGSAEAQYCELDVVPGDLNRFTLTGCLPQRSEPLPLAFAVQDGASYAGAILKDELKQAGITWSGTLLRQTQVNEPGTVVASKQSAPLHDLLKIMLKKSDNMIADTVFRMIGHARFNVPGTWRAGSDAVRQILRQQAGVDIGNTIIADGSGLSRHNLIAPATMMQVLQYIAQHDNELNFISMLPLAGYDGSLQYRAGLHQAGVDGKVSAKTGSLQGVYNLAGFITTASGQRMAFVQYLSGYAVEPADQRNRRIPLVRFESRLYKDIYQNN”, the “total protein half-life in vivo” value under setting [3] is 6.48 ± 0.36 h; the “total protein half-life in vivo” value under setting [4] was determined as 6.25 ± 0.35 h; the “total protein half-life in vivo” value under setting [5] was found to be 6.87 ± 0.72 h; the “total protein half-life in vivo” value under setting [6] was 6.194 ± 0.044 h; the “total protein half-life in vivo” value under setting [7] turned out to be 6.051 ± 0.02 h; the “total protein half-life in vivo” value under setting [8] stood at 3.24 ± 0.54 h. Further, the “total protein half-life in vivo” value runs as follows: under setting [9], 6.21 ± 0.86 h; under setting [10], 12.7 ± 0.72 h; under setting [11], 6.15 ± 0.52 h; under setting [12], 13.4 ± 0.64 h; under setting [1], 6.25 ± 0.55 h; under setting [2], 12.6 ± 0.42 h.

As for “MDKLLERFLNYVSLDTQSKAGVRQVPSTEGQWKLLHLLKEQLEEMGLINVTLSEKGTLMATLPANVPGDIPAIGFISHVDTSPDCSGKNVNPQIVENYRGGDIALGIGDEVLSPVMFPVLHQLLGQTLITTDGKTLLGADDKAGIAEIMTALAVLQQKKIPHGDIRVAFTPDEEVGKGAKHFDVDAFDARWAYTVDGGGVGELEFENFNAASVNIKIVGNNVHPGTAKGVMVNALSLAARIHAEVPADESPEMTEGYEGFYHLASMKGTVERADMHYIIRDFDRKQFEARKRKMMEIAKKVGKGLHPDCYIELVIEDSYYNMREKVVEHPHILDIAQQAMRDCDIEPELKPIRGGTDGAQLSFMGLPCPNLFTGGYNYHGKHEFVTLEGMEKAVQVIVRIAELTAQRK”, the “total protein half-life in vivo” value was determined as 4.47 ± 0.093 h under setting [3]; 4.26 ± 0.49 h under setting [4]; 3.88 ± 0.14 h under setting [5]; 4.53 ± 0.13 h under setting [6]; 4.04 ± 0.089 h under setting [7]; 3.079 ± 0.019 h under setting [8]. Also, the “total protein half-life in vivo” value is, setting by setting: under setting [9], 6.32 ± 1.1 h; under setting [10], 9.74 ± 0.59 h; under setting [11], 3.97 ± 0.13 h; under setting [12], 5.85 ± 0.25 h; under setting [1], 5.38 ± 0.2 h; under setting [2], 10.3 ± 0.14 h.

Regarding “MIDPKKIEQIARQVHESMPKGIREFGEDVEKKIRQTLQAQLTRLDLVSREEFDVQTQVLLRTREKLALLEQRISELENRSTEIKKQPDPETLPPTL”, the “total protein half-life in vivo” value under setting [4] was 6.97 ± 0.85 h; the “total protein half-life in vivo” value under setting [5] came to 6.5 ± 1.2 h; the “total protein half-life in vivo” value under setting [6] is 5.8 ± 0.65 h; the “total protein half-life in vivo” value under setting [7] was found to be 5.79 ± 0.91 h; the “total protein half-life in vivo” value under setting [8] was 3.5 ± 0.19 h; the “total protein half-life in vivo” value under setting [9] was 5.53 ± 0.24 h. In addition, the “total protein half-life in vivo” value runs as follows: under setting [11], 4.27 ± 0.63 h; under setting [12], 11.5 ± 5.3 h; under setting [1], 4.66 ± 1.2 h; under setting [2], 10.8 ± 0.66 h.

With “MKDERRPICEVVAESIERLIIDGVLKVGQPLPSERRLCEKLGFSRSALREGLTVLRGRGIIETAQGRDSRVARLNRVQDTSPLIHLFSTQPRTLYDLLDVRALLEGESARLAATLGTQADFVVITRCYEKMLAASENNKEISLIEHAQLDHAFHLAICQASHNQVLVFTLQSLTDLMFNSVFASVNNLYHRPQQKKQIDRQHARIYNAVLQRLPHVAQRAARDHVRTVKKNLHDIELEGHHLIRSAVPLEMNLS [P0ACL5]”, the “total protein half-life in vivo” value reads like this: under setting [3], 4.767 ± 0.025 h; under setting [4], 1.35 h; under setting [6], 1.21 h; under setting [7], 1.37 ± 0.029 h; under setting [8], 1.3 ± 0.1 h; under setting [9], 2.15 ± 0.25 h. Moreover, the “total protein half-life in vivo” value under setting [10] was determined as 2.35 ± 0.16 h; the “total protein half-life in vivo” value under setting [11] was 1.21 ± 0.14 h; the “total protein half-life in vivo” value under setting [12] was found to be 1.68 ± 0.18 h; the “total protein half-life in vivo” value under setting [1] came to 1.56 ± 0.22 h; the “total protein half-life in vivo” value under setting [2] turned out to be 2.65 ± 0.72 h.

With “MLSYRHSFHAGNHADVLKHTVQSLIIESLKEKDKPFLYLDTHAGAGRYQLGSEHAERTGEYLEGIARIWQQDDLPAELEAYINVVKHFNRSGQLRYYPGSPLIARLLLREQDSLQLTELHPSDYPLLRSEFQKDSRARVEKADGFQQLKAKLPPVSRRGLILIDPPYEMKTDYQAVVSGIAEGYKRFATGIYALWYPVVLRQQIKRMIHDLEATGIRKILQIELAVLPDSDRRGMTASGMIVINPPWKLEQQMNNVLPWLHSKLVPAGTGHATVSWIVPE”, the “total protein half-life in vivo” value under setting [3] worked out at 4.85 ± 0.21 h; the “total protein half-life in vivo” value under setting [4] was 5.06 ± 0.45 h; the “total protein half-life in vivo” value under setting [5] was 4.81 ± 0.14 h; the “total protein half-life in vivo” value under setting [6] was 4.96 ± 0.05 h; the “total protein half-life in vivo” value under setting [7] turned out to be 4.87 ± 0.07 h; the “total protein half-life in vivo” value under setting [8] amounted to 3.16 ± 0.27 h. Further, the “total protein half-life in vivo” value under setting [9] worked out at 6.11 ± 0.47 h; the “total protein half-life in vivo” value under setting [10] came to 10.7 ± 0.25 h; the “total protein half-life in vivo” value under setting [11] amounted to 5.06 ± 0.073 h; the “total protein half-life in vivo” value under setting [12] was 8.35 ± 0.22 h; the “total protein half-life in vivo” value under setting [1] was 6.55 ± 0.2 h; the “total protein half-life in vivo” value under setting [2] turned out to be 14 ± 2.8 h.

For the sequence “MKFRLGGFEAIKSAYMAQVQYSMWVTRKDAWYFANYDPRMKREGLHYVVIERNEKYMASFDEMVPEFIEKMDEALAEIGFVFGEQWR”, the “total protein half-life in vivo” value under setting [4] was 2.75 h.

With “MLILKNVTAVQLHPAKVQEGVDIAIENDVIVAIGDALTQRYPDASFKEMHGRIVMPGIVCSHNHFYSGLSRGIMANIAPCPDFISTLKNLWWRLDRALDEESLYYSGLICSLEAIKSGCTSVIDHHASPAYIGGSLSTLRDAFLKVGLRAMTCFETTDRNNGIKELQEGVEENIRFARLIDEAKKATSEPYLVEAHIGAHAPFTVPDAGLEMLREAVKATGRGLHIHAAEDLYDVSYSHHWYGKDLLARLAQFDLIDSKTLVAHGLYLSKDDITLLNQRDAFLVHNARSNMNNHVGYNHHLSDIRNLALGTDGIGSDMFEEMKFAFFKHRDAGGPLWPDSFAKALTNGNELMSRNFGAKFGLLEAGYKADLTICDYNSPTPLLADNIAGHIAFGMGSGSVHSVMVNGVMVYEDRQFNFDCDSIYAQARKAAASMWRRMDALA”, the “total protein half-life in vivo” value was determined as 3.15 h under setting [3], 2.62 h under setting [8], 4.3 h under setting [9] and 11.2 h under setting [10].
